± gives the standard deviation of the averaged measurements.
Assays:
[1] = melting temperature (DSF); higher = more thermostable
Procedure, shortened: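 Values are melting temperatures from differential scanning fluorimetry. Candidate enzymes were expressed in E. coli C41(DE3), purified on nickel beads and freed by SUMO protease cleavage. In sealed PCR plates on a Bio-Rad CFX96, 45 μL enzyme (0 to 0.3 mg/mL) was combined with 5 μL 5X Sypro Orange. Fluorescence was recorded from 25 °C for 250 cycles, rising 0.3 °C per cycle at a ramp of 0.3 °C/s.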

[2] = purified protein yield per well (BCA); higher = higher soluble expression
Procedure, shortened: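 Candidate enzymes were made in 2 mL autoinduction cultures of E. coli C41(DE3) with 100 µg/mL kanamycin, at 37 °C for 2 h and then 18 °C for 40 h, and purified with Ni-charged magnetic beads and SUMO protease cleavage. The Pierce Rapid Gold BCA kit gave purified protein yield per well. Values lower than 25 ug (0.1 mg/mL) are below the detection threshold.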

[3] = PET hydrolysis, aromatic products released after 48 h (umol product/mg enzyme); higher = more PET depolymerization activity
Procedure, shortened: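 Hydrolysis activity toward PET is reported as supernatant aromatic product per mg enzyme. To measure it, 5 μg (50 μL) of tagless enzyme was incubated with 3.5 mg amorphous PET film or crystalline PET powder in 450 μL buffer for 48 h at 40 or 60 °C in sealed, unshaken plates. The product was quantified by absorbance at 260 and 280 nm relative to buffer blanks.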

[4] = substrate: aFilm, 40 °C, pH 4.5
[5] = substrate: aFilm, 40 °C, pH 5.5
[6] = substrate: aFilm, 40 °C, pH 6.5
[7] = substrate: aFilm, 40 °C, pH 7.5
[8] = substrate: aFilm, 60 °C, pH 4.5
[9] = substrate: aFilm, 60 °C, pH 5.5
[10] = substrate: aFilm, 60 °C, pH 6.5
[11] = substrate: aFilm, 60 °C, pH 7.5
[12] = substrate: cryPow, 40 °C, pH 4.5
[13] = substrate: cryPow, 40 °C, pH 5.5
[14] = substrate: cryPow, 40 °C, pH 6.5
[15] = substrate: cryPow, 40 °C, pH 7.5
[16] = substrate: cryPow, 60 °C, pH 4.5
[17] = substrate: cryPow, 60 °C, pH 5.5
[18] = substrate: cryPow, 60 °C, pH 6.5
[19] = substrate: cryPow, 60 °C, pH 7.5
[20] = substrate: cryPow, 40 °C, pH 8.5

| Sequence | melting temperature [1] [C] | purified protein yield per well [2] [µg] | PET hydrolysis [3, 4] | PET hydrolysis [3, 5] | PET hydrolysis [3, 6] | PET hydrolysis [3, 7] | PET hydrolysis [3, 8] | PET hydrolysis [3, 9] | PET hydrolysis [3, 10] | PET hydrolysis [3, 11] | PET hydrolysis [3, 12] | PET hydrolysis [3, 13] | PET hydrolysis [3, 14] | PET hydrolysis [3, 15] | PET hydrolysis [3, 16] | PET hydrolysis [3, 17] | PET hydrolysis [3, 18] | PET hydrolysis [3, 19] | PET hydrolysis [3, 20] | PET hydrolysis ([3]; substrate: cryPow, 60 °C, pH 8.5) |
| --- | --- | --- | --- | --- | --- | --- | --- | --- | --- | --- | --- | --- | --- | --- | --- | --- | --- | --- | --- | --- |
| LTPSPTPPPTGGTGGCPADAICRGETPGSYSANGPYGSRSYTLSRIQTPGGATVYYPANAEPPFSGLVFTPPYTGSQFMYRAWGPFFASHGIVMVTMDTRTTLDSVDQRAAQQKQVLDALKAENTRSASPLRGKLDTSRLGAVGWSMGGGATWINSAEYSGLKTAMSLAGHNLSALDINARGSNTRVPTLIMNGALDATYLGGLGQSLGVYNNIPRGIPKVIYEVSSAGHFSWGSPTSAGRSVAQIALAFQKTFLDGDTRWATYIRRPSSGVATWRTANLP [ESM175] | 46 | 285 | < 3 | < 3 | < 3 | < 3 | < 3 | < 3 | < 3 | < 3 | < 3 | < 3 | < 3 | < 3 | < 3 | < 3 | < 3 | < 3 |  |  |
| QYQKGPDPTTSSLERAGSFATRTISVSSLAASGFGGGRIYYPTASGSYGVIAVSPGYTGTASTMYFWGERLSSHGFVVIVIETNTLLDQPGSRANQLMAALNYTVSQGNSRTSALYGKVDGNRRGVAGHSMGGGGTLIAAADNASLKAAVPMAPWNLSSLSFRGIRVPTMIFGCQSDAIAPVNTHAVPFYNAIPSSTKKGYVEMRLDDHFCVMNGGGHYETLGKLGISWFKRFIDEDTRYSKFLCGTEYNATVRSTEVSDSKNNCPY [DP039] | 47.8 | 57 |  |  |  |  |  |  |  |  |  | < 3 | 3 | 4 |  | < 3 | < 3 | < 3 | 3 | < 3 |
| AQTSQVVTANPHQRGPDPTPETVRAPQGTFAFSTYSVPASVTGFGQGTIYYPDDTTQGTFAGVAISPGYTGPEASVAWLGPRLASRGFVVITITTNSRYDQPTSRGKQLLAALDYLTKQSPTEVRQRLDATRLGVMGHSMGGGGALYAAYKRPSLKAAVPLAPWNLIKNWSGIRVPTLVVAGTADKTASAGAHSLPFYSSMTGARERAFADVTGADHLTFVREDPVIGALAVSWLKRFLDDDTRYAPFITEPVGLSRFLCSCPYAG [DP007] | 51.7 | 46 |  |  |  |  |  |  |  |  |  | < 3 | 8 | 16 |  |  |  |  | 16 |  |
| MAENPYERGPAPTTSSIEASRGSFATSTVTVSRLAVSGFGGGTIYYPTSTTAGTFGAISIAPGFTALQSSIAWLGPRLASQGFVVFTIDTLTTSDQPDSRGRQLLAALDYLTQQSSVRSRIDSSRLGVVGHSMGGGGTLEAARSRPSLQAAIPLTGWNLTKTWSTVRVPTLVVGAQADTVAPVASHSIPFYNSLPSSLDKAYLELRGASHFAPNSSNTTIAKYTLSWLKRFIDNDTRYEQFLCPIPSTSLSISDYRGNCPHNG [TEP182] | 53.5 | 290 | < 3 | < 3 | < 3 | < 3 | < 3 | < 3 | < 3 | < 3 | < 3 | 6 | 11 | 17.5 ± 2.1 | < 3 | 4 | 12.5 ± 0.71 | 15.5 ± 0.71 |  |  |
| AQENPYERGPAPTAQNITEDGPFAYATATVPAQSGFAGGAIYYPTDTSQGTFGAVAAVPGFLTPVDDVAWMGPRLASHGFVVFTIEPNSRFEFPSGRAAALKAGLTYLTQSSAVRDRVDPTRLAVAGHSMGGGAALEAALKDPNLKAAVALQPWHTGVNFSTVNVPSMIVGAENDPIASPASHAEPFYEQIPAASEKAYLNLAGVGHEVGGVVTNDTQSSMMLTWLKRYVDNDTRYEPFMCPGPSGSSVLEYRGTCPG [TEP170] | 49.3 | 137 |  |  |  |  |  |  |  |  | < 3 | < 3 | < 3 | < 3 | < 3 | < 3 | < 3 | < 3 |  |  |
| APGPSAPCSNCTRGPNPTEASLKSDRGPFTTARFSVSGFLKGFGDSTVYYPTNTTGRMGAIAVIPGYLSYESSIEWWGPRLASHGFVVMTMNTSTIYDQPDSRATQLSKALDYLIAQSNTSSSPIYNKIDSTRLGAIGWSMGGGGSLKLSTQRSLNAIIPQAPWYSGSNSFNTIKTPALILACSADTVAPVSVHASPFYNRIPGSTPKAFLEIYGGSHFCANSGYPNEDLLGLYGIAWMKRFIDFDNRYSQFLCGPNHEGDFAISDYRQNCPY [ESM096] | 52 | 33.4 |  |  |  |  |  |  |  |  | < 3 | < 3 | 6 | 22 |  |  |  |  |  |  |
| DPPTHAKGVKPGPSELAAPSASDLAADGPHAVTTTAISGSVTPGFGAATIYAPASGSGYGGVAISPGYMSTQSAVSWLGPRLASHGFVVITFDTTTIWDNPDSRGVQLLAALDYLTGSSPARGQVDASRLAVMGHSMGGGGSLAAAKSRPSIDAAIPLTPWHTDKTWPEVSTPTLIVGAENDGIAPVASHAEPFYESLATSTDRAYLELNAATHSAPNSENAQISTYSLAWLKRFVDGDTSVDPILCPGPAASSTVEEYRSSCPF [DP019] | 42.7 | 28 |  |  |  |  |  |  |  |  |  | < 3 | < 3 | < 3 |  |  |  |  | < 3 |  |
| MNAVGPTTPPTTTPPTTPAGDNPYQRGPDPTVASVAAQYGPFATAQITVPPGNGFNGGFIYYPTDSSHTYGAVAIVPGYTALFADEEAWMGPRLASFGFVVIGVETNSRTDYDTARGTQLLAALDYLTNSSAVRDRVDRNRLAVIGHSMGGGGALYAATQRPSLKAAIGLAPFKPSGNLASDTVPTMIIGGINDTTVTPSYLDGLYPTLPAATPGAYLQLANADHLYFTRPNDIEMRSQIEWLKIFVDNDTRYTPFLCPSIKDTTGIVRSNVKCSTIPGGGSTSPPTTTPPPAGSNRIVGAQSGRCVDVPGASQTNGTRVQLYDCNGQPNQAWTLTASKQLTVYGSRCLDAAGSGNGSAVQIYSCNGQANQQWNVNANGTITGVQSGRCLDVWGTGNGQQVQIYDCNGQANQRFGLS [ESM052] | 61.6 | 248 | 4.5 ± 0.71 | 7.5 ± 0.71 | < 3 | < 3 | < 3 | < 3 | < 3 | < 3 | 13.5 ± 2.1 | 28.5 ± 2.1 | 36.5 ± 3.5 | 17.5 ± 7.8 | < 3 | 7.5 ± 0.71 | 5.5 ± 0.71 | < 3 |  |  |
| ADNPYQRGPDPTRTSVATERGPFANTSVSVPSGYGFNGGRIYYPTDTSQGTFGAIAISPGYTALFSAELAWMGPWLASHGFVVIGIETNSRNDFDTARGTQLLAALDYLTQQSPVRDRIDPNRLAVSGHSMGGGGALSAAMRRSSLKAVVGIAPYSPSSNLANDRVPTMIFSGQADTVVTPSYAMGLYNSIPAGTKSAYLEVAGGDHGFMVGRSNPVLIRTMLPFLKIFIDNDARYSQFLCPLLDNSGVVTYRSTCPFLPTTPTTPPPTG [ESM065] | 67.9 | 250 |  |  |  |  |  |  |  |  | 21 | 29 | 7 | < 3 | < 3 | 4 | < 3 | < 3 |  |  |
| QSSSCSLMGDVNESNGVDIVDALLIAQAYVGLNPEMEYNPCADVDCSGSMNIVDALLVAQKYVGLISNFPCQISPEPTTEPTSEPVLFIACGSSSAVGSFQADEYFSGGNTHSNSNSVDISRITVNTPPAGLFNNERYGEMSYNIPGLSAGETYTVTLYFAETYLSSSGSRLFNVSINHSDVLTSFDIYDSAGGQNIAVSYSFITTADNSGNILIDFASVTENPKINGIAIMAGIGPTNVPTPEPTPTPENSGFQRGPDPSLASISANRGTFATAELTFPAGNGFGGGFIYYPTDTSLGTWGAVAICPGGSAKFANEETWMGHWLASFGFVVIGIETNNTFDFPESRGTQLLAALDYLVQKSAVKDRVDPDRLMVMGHSMGGGGAFHAALARSSLKTMVALAPWFNTNLTSPSLSNLRMPTMVISARNDTVVTPASCSAIYDKIPTSTQRAWVELAADDHLGFIKPNYTEMRVLIPWMKIFLDSDERYVQFLCPMANSSNISIYKNSCPLVP [TEP098] | 51.7 | 50.5 |  |  |  |  |  |  |  |  | < 3 | < 3 | < 3 | < 3 |  |  |  |  |  |  |
| QYQKGPDPTVSALERTGSFATRTTTVSRTSASGFGGGTIYYPTASGSYGAIAISPGFTAYQSSISWMGTRLASHGFVVITIDTITTSDQPDSRGRQLKAALDKVVSLSRSSSSPIYNKVDTTRLAVAGHSMGGGGTLAAARDYPSLKAAVPLAPWHTTKSWSRVTVPTLIIGGSTDTIASVGLHSIPFYTSLPSSTNKAYMELSGEGHFFPQTSSNYPLVGRYMISWFKRFVDGDSRYSPFLCGAQHQADLGLFSDISDYRENCPY [ESM169] | 61.3 | 219 | < 3 | 6 ± 1.4 | 10.5 ± 0.71 | 18.5 ± 0.71 | < 3 | < 3 | 6.5 ± 0.71 | 6 ± 1.4 | < 3 | 15 ± 2.8 | 32.5 ± 0.71 | 57 ± 11 | < 3 | 9 | 24.5 ± 2.1 | 29 ± 1.4 |  |  |
